T1: human TREM2 on BWZ cells (human, UniProt Q9NZC2 19-230)
T1 construct: whole, on cells; not tied to the cell line; also called BWZ Human TREM2
T1 sequence (looked up): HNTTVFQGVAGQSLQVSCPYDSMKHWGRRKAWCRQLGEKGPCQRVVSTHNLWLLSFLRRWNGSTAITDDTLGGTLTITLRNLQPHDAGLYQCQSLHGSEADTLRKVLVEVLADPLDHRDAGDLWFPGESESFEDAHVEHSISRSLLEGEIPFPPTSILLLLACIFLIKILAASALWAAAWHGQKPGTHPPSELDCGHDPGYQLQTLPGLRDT

T2: mouse TREM2 on BWZ cells (mouse, UniProt Q99NH8 19-227)
T2 construct: whole, on cells; also called BWZ Mouse TREM2
T2 sequence (looked up): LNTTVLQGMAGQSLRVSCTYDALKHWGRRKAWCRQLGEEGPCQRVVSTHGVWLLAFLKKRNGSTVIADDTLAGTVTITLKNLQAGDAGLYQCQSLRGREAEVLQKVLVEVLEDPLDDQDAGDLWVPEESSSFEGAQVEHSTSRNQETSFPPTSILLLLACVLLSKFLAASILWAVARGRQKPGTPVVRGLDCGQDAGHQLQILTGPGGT

T3: mouse TREM1 on CHO cells (mouse, UniProt Q9JKE2 21-230)
T3 construct: also called CHO-mT1
T3 sequence: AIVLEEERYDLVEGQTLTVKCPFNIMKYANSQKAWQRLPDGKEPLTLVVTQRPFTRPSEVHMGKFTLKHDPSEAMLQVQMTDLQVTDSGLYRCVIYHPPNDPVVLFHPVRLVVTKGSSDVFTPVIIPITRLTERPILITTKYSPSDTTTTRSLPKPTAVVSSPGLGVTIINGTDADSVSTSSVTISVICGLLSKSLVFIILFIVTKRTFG

B1: T1-29 (antibody, IgG1, V domains shown)
VH: QLQLQESGPGLVKPSETLSLTCTVSGGSISSSSYYWGWIRQPPGKGLEWIGSIYYSGSTYYNPSLKSRVTISVDTSKNQFSLKLSSVTAADTAVYYCARDGGGTAQADGAYYYGMDVWGQGTTVTVSS
VL: EIVLTQSPATLSLSPGERATLSCRASQSVSSYLAWYQQKPGQAPRLLIYDASNRATGIPARFSGSGSGTDFTLTISSLEPEDFAVYYCQQGVNYPFTFGGGTKVEIK
notes: huIgG1; also called TI-29
B2: T1-21 (antibody, IgG1, V domains shown)
VH: EVQLVESGGGLVQPGGSLRLSCAASGFTFSSYSMNWVRQAPGKGLEWVSYISSSSSTIYYADSVKGRFTISRDNAKNSLYLQMNSLRAEDTAVYYCARGGPLGYGDYKGMDVWGQGTTVTVSS
VL: DIQLTQSPSSLSASVGDRVTITCRASQSISSFLNWYQQKPGKAPKLLIYAASSLQSGVPSRFSGSGSGTDFTLTISSLQPEDFATYYCQQSYSDLTFGGGTKVEIK
notes: huIgG1; also called TI-21; ADI-19088
B3: T1-28 (antibody, IgG1, V domains shown)
VH: EVQLVESGGGLVKPGGSLRLSCAASGFTFSSYSMNWVRQAPGKGLEWVSSISSSSNYIYYADSVKGRFTISRDNAKNSLYLQMNSLRAEDTAVYYCARGPSQYYYDSSAIEAFDIWGQGTMVTVSS
VL: EIVLTQSPATLSVSPGERATLSCRASQSVGSNLAWYQQKPGQAPRLLIYGASTRATGIPARFSGSGSGTEFTLTISSLQSEDFAVYYCQQYLYFPLTFGGGTKVEIK
notes: huIgG1; also called TI-28
B4: T1-34 (antibody, IgG1, V domains shown)
VH: EVQLVESGGGLVKPGGSLRLSCAASGFTFSSYSMNWVRQAPGKGLEWVSSISSSSNYIYYADSVKGRFTISRDNAKNSLYLQMNSLKAEDTAVYYCARRPDDRRGLFQHWGQGTLVTVSS
VL: DIQMTQSPSTLSASVGDRVTITCRASQSINSWLAWYQQKPGKAPKLLISDASSLESGVPSRFSGSGSGTEFTLTISSLQPDDFATYYCQQYGPYPYTFGGGTKVEIK
notes: huIgG1; also called TI-34; ADI-19108
B5: T1-16 (antibody, IgG1, V domains shown)
VH: EVQLVESGGGLVQPGRSLRLSCAASGFTFDDYAMHWVRQAPGKGLEWVSGISWNSGSIGYADSVKGRFTISRDNAKNSLYLQMNSLRAEDTALYYCAKGPRMSGWWADWGQGTLVTVSS
VL: DIQMTQSPSSVSASVGDRVTITCRASQGISSWLAWYQQKPGKAPKLLIYAASSLQSGVPSRFSGSGSGTDFTLTISSLQPEDFATYYCQQADTLPITFGGGTKVEIK
notes: huIgG1; also called TI-16; ADI-19083
B6: T1-24 (antibody, IgG1, V domains shown)
VH: EVQLVESGGGLVQPGRSLRLSCAASGFTFDDYAMHWVRQAPGKGLEWVSGITWNSGSIGYADSVKGRFTISRDNAKNSLYLQMNSLRAEDTALYYCAKGPRLLSALDVWGQGTMVTVSS
VL: DIQMTQSPSTLSASVGDRVTITCRASQSISSWLAWYQQKPGKAPKLLIYKASSLESGVPSRFSGSGSGTEFTLTISSLQPDDFATYYCQQDSIYPITFGGGTKVEIK
notes: huIgG1; also called TI-24; ADI-19150
B7: T1-25 (antibody, IgG1, V domains shown)
VH: EVQLVESGGGLVQPGRSLRLSCAASGFTFDDYAMHWVRQAPGKGLEWVSGISWNSGSIGYADSVKGRFTISRDNAKNSLYLQMNSLRAEDTALYYCAKGGSRYSHFDYWGQGTLVTVSS
VL: EIVLTQSPATLSLSPGERATLSCRASQSVSSYLAWYQQKPGQAPRLLIYDASNRATGIPARFSGSGSGTDFTLTISSLEPEDFAVYYCQQRSVLPLTFGGGTKVEIK
notes: huIgG1; also called TI-25; ADI-19092
B8: T1-19 (antibody, IgG1, V domains shown)
VH: EVQLVESGGGLVQPGGSLRLSCAASGFTFSDHHMDWVRQAPGKGLEWVGRTRNKANSYTTEYAASVKGRFTISRDDSKNSLYLQMNSLKTEDTAVYYCARGPLGYKLWGQGTLVTVSS
VL: DIQMTQSPSSVSASVGDRVTITCRASQGISSWLAWYQQKPGKAPKLLIYAASNLQSGVPSRFSGSGSGTDFTLTISSLQPEDFATYYCQQANSFPLTFGGGTKVEIK
notes: huIgG1; also called TI-19; ADI-19086
B9: T1-27 (antibody, IgG1, V domains shown)
VH: QVQLQESGPGLVKPSQTLSLTCTVSGGSISSGGYYWSWIRQHPGKGLEWIGYIYYSGSTYYNPSLKSRVTISVDTSKNQFSLKLSSVTAADTAVYYCARDSSIAGRATLSFDYWGQGTLVTVSS
VL: DIQMTQSPSSLSASVGDRVTITCRASQSISSYLNWYQQKPGKAPKLLIYAASSLQSGVPSRFSGSGSGTDFTLTISSLQPEDFATYYCQQSFYDPITFGGGTKVEIK
notes: huIgG1; also called TI-27
B10: T1-23 (antibody, IgG1, V domains shown)
VH: EVQLVESGGGLVQPGRSLRLSCAASGFTFDDYAMHWVRQAPGKGLEWVSGITWNSGSIGYADSVKGRFTISRDNAKNSLYLQMNSLRAEDTALYYCAKGPRLLSALDVWGQGTMVTVSS
VL: DIQMTQSPSTLSASVGDRVTITCRASQSIGSWLAWYQQKPGKAPKLLIYKASSLESGVPSRFSGSGSGTEFTLTISSLQPDDFATYYCQQHQSFSPTFGGGTKVEIK
notes: huIgG1; also called TI-23; ADI-19090
B11: T1-13 (antibody, IgG1, V domains shown)
VH: EVQLVESGGGLVKPGGSLRLSCAASGFTFSSYSMNWVRQAPGKGLEWVSSISSSSNYIYYADSVKGRFTISRDNAKNSLYLQMNSLRAEDTAVYYCARGRYRRTGSLDVWGQGTMVTVSS
VL: EIVLTQSPGTLSLSPGERATLSCRASQSVSSSFLAWYQQKPGQAPRLLIYGASSRATGIPDRFSGSGSGTDFTLTISRLEPEDFAVYYCQQLDSHPPTFGGGTKVEIK
notes: huIgG1; also called TI-13; ADI-19080
B12: T1-26 (antibody, IgG1, V domains shown)
VH: QVQLVQSGAEVKKPGASVKVSCKASGYTFTSYYIHWVRQAPGQGLEWMGIINPSGGSTSYAQKFQGRVTMTRDTSTSTVYMELSSLRSEDTAVYYCARDSAQETYYYGMDVWGQGTTVTVSS
VL: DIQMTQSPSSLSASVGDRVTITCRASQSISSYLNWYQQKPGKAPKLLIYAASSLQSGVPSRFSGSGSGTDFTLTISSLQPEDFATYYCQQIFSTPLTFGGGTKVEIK
notes: huIgG1; also called TI-26
B13: T1-20 (antibody, IgG1, V domains shown)
VH: EVQLVESGGGLVQPGGSLRLSCAASGFTFSSYWMSWVRQAPGKGLEWVANIKQDGSEKYYVDSVKGRFTISRDNAKNSLYLQMNSLRAEDTAVYYCARDAPQLGLDVWGQGTMVTVSS
VL: not shown
notes: huIgG1; also called TI-20; ADI-19087

How the values were obtained:
[1] = target: T1, human TREM2 on BWZ cells; assay: FACS, BWZ cells
[2] = target: T2, mouse TREM2 on BWZ cells; assay: FACS, BWZ cells
[3] = target: T1, human TREM2 on BWZ cells; assay: FACS, BWZ human TREM2
[4] = target: T2, mouse TREM2 on BWZ cells; assay: FACS, BWZ mouse TREM2
[5] = target: T3, mouse TREM1 on CHO cells; assay: FACS, CHO mouse TREM1

Row | binding result [1] | binding result [2] | FOB Fold Over Background [3] [fold] | FOB Fold Over Background [4] [fold] | FOB Fold Over Background [5] [fold] | Binder
1 | no binding | no binding | 0.7 | 1.2 | 401 | B1
2 | no binding | no binding | 0.5 | 0.9 | 0.5 | B2
3 | no binding | no binding | 0.6 | 1.1 | 408 | B3
4 | no binding | no binding |  |  |  | B4
5 | no binding | no binding | 0.7 | 1.2 | 1 | B5
6 | no binding | no binding | 1.4 | 1.2 | 1.3 | B6
7 | no binding | no binding | 0.7 | 1.3 | 0.9 | B7
8 | no binding | no binding | 0.5 | 0.8 | 0.9 | B8
9 | no binding | no binding | 0.8 | 1.2 | 523 | B9
10 | no binding | no binding | 1 | 1.2 | 1 | B10
11 | no binding | no binding | 0.7 | 1.2 | 0.5 | B11
12 | no binding | no binding | 0.8 | 1.2 | 417 | B12
13 | no binding | no binding | 0.6 | 1 | 0.7 | B13
